Molecular target: T1, human TFPI (tissue factor pathway inhibitor) (human, UniProt P10646 29-304, limits assumed)
T1 construct: bought protein, coated on ELISA plates or amine-coupled to a CM5 chip; also called hTFPI
T1 sequence (looked up): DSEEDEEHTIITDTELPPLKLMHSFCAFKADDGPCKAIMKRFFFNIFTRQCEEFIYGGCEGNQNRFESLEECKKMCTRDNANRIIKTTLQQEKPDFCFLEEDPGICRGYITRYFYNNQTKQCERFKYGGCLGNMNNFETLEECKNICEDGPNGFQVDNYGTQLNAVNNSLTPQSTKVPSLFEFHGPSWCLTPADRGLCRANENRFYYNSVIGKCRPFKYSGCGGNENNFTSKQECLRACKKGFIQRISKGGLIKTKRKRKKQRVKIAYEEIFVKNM
Experiment: competitive ELISA
Procedure: Briefly, MTP plates (either Mesoscale Discovery, L21XA-4 or Nunc maxisorp black, 460518) were coated with 0.04-2 lug/m1 either human or mouse TFPI diluted in phosphate buffered saline (PBS) or in coating buffer (Candor Bioscience GmbH, 121500), respectively and incubated over night at 4° C. After washing, plates were blocked with 3% bovine serum albumin (Sigma, A4503) in PBST for 1 hour at room temperature and the washing step was repeated. For binding of the antibodies 10-25 µl of culturing supernatants normalized to their respective antibody expression level (if not otherwise indicated) were added to the plates for 1 hour at RT followed by washing with PBST. Bound wild-type and variants were then either detected by an epitope tag specific antibody or a competition step was included. For competition, 50-300 nM competitor or free antigen was added and incubated for 20 minutes to 24 hours at room temperature. […] For signal detection in maxisorp plates 10 [tM amplex red substrate (Invitrogen, A12222) was added and incubated for 10 to 30 minutes at room temperature in the dark followed by fluorescence measurement. For the detection in MSD plates MSD read buffer T was diluted to 2× in H2O (Mesoscale Discovery, R92TC-1), added to the plates and the electrochemiluminiscence signal was detected at 620 nm using the Mesoscale Discovery Sector Imager 6000. […]

variant/wild-type: 3.7 ratio
B1: 4B7 HC H107M LC F31I (Fab, V domains shown)
VH: QVQLQQSGPGLVKPSQTLSLTCAISGDSVSSNSAAWSWIRQSPGRGLEWLGIIYKRSKWYNDYAVSVKSRITINPDTSKNQFSLQLNSVTPEDTAVYYCARWHSDKMWGFDYWGQGTLVTVSS
VL: DIVMTQSPLSLPVTPGEPASISCRSSQSLVISDGNTYLNWYLQKPGQSPQLLIYKGSNRASGVPDRFSGSGSGTDFTLKISRVEAEDVGVYYCQQYDSYPLTFGQGTKVEIKR
notes: Fab; tags as m115; also called HC H107M LC F311 (so in the source)
